Measured values taken from PMC10755771.

Target: STAM1-His (signal-transducing adaptor molecule 1, wild type) (UniProt Q92783)

“βarrestin1 (untagged, wild type) (from UniProt P49407 1-418) (natural protein)” gave an in vitro ubiquitination of STAM1 by AIP4 with βarr1 at 0-320 nM, 90 min at 37 °C; EC50 for βarr1 from the STAM1 immunoblots of 48.7 nM and an in vitro ubiquitination of STAM1 by AIP4 with βarr1 at 0-320 nM, 90 min at 37 °C; EC50 for βarr1 from the ubiquitin immunoblots of 49.8 nM.
